Assay results: US20130164256A1 (AbbVie / Abbott, published 2013)
Substitutions are numbered along the chain they refer to.

B1: AE11-5 AM4 (antibody, V domains shown)
VH: EVQLVQSGAEVKKPGSSVKVSCKASGGTFSWYAISWVRQAPGQGLEWMGGITPILGSPIYAQKFQGRVTITADESTSTVYMELSSLRSEDTAVYYCARGVYYDPKRADYWGQGTLVTVSS
VL: EIVLTQSPDFQSVTPKEKVTITCRASQRIGSSLHWYQQKPDQSPKLLIKHASQSVSGVPSRFSGSGSGTDFTLTINSLEAEDAATYYCHQSRSSPPPTFGQGTKVEIK
notes: Full length IgG converted from scFv clone J703M1S3#30; Human IgG1 (hCg1,z,non-a,mut(234,235)) with human kappa; also called J703M1S3#30
B2: AE11-5 AM2 (antibody, V domains shown)
VH: B1 VH with S57A, P58A, I59N
VL: EIVLTQSPDFQSVTPKEKVTITCRASQSIGSTLHWYQQKPDQSPKLLIKHASQSNSGVPSRFSGSGSGTDFTLTINSLEAEDAATYYCHQSSSLPPPTFGQGTKVEI
notes: Full length IgG converted from scFv clone J703M1S3#13; Human IgG1 (hCg1,z,non-a,mut(234,235)) with human kappa; also called J703M1S3#13
B3: AE11-5 AM10 (antibody, V domains shown)
VH: B1 VH with P104Y
VL: B1 VL with R28S, S32N, V55I, S91T, S93T, P97L
notes: Full length IgG converted from scFv clone J703M1S3#90; Human IgG1 (hCg1,z,non-a,mut(234,235)) with human kappa; also called J703M1S3#90
B4: AE11-5 AM8 (antibody, V domains shown)
VH: B1 VH with S57T, P104F
VL: B1 VL with R28T, V55I, R92S
notes: Full length IgG converted from scFv clone J703M1S3#38; Human IgG1 (hCg1,z,non-a,mut(234,235)) with human kappa; also called J703M1S3#38
B5: AE11-5 AM3 (antibody, V domains shown)
VH: B1 VH with S57T, P58A, I59N
VL: B1 VL with R28S, S32R, V55T, R92G, P97R
notes: Full length IgG converted from scFv clone J703M1S3#26; Human IgG1 (hCg1,z,non-a,mut(234,235)) with human kappa; also called J703M1S3#26
B6: AE11-5 AM9 (antibody, V domains shown)
VH: B1 VH with V100I
VL: B1 VL with R28S, A51V, V55L, S91R, R92S, P96S
notes: Full length IgG converted from scFv clone J703M1S3#69; Human IgG1 (hCg1,z,non-a,mut(234,235)) with human kappa; also called J703M1S3#69
B7: AE11-5 AM6 (antibody, V domains shown)
VH: B1 VH with P58A, I59T, V100I
VL: B1 VL with R28T, V55I, S91T, R92S, S94L, P96T
notes: Full length IgG converted from scFv clone J703M1S3#35; Human IgG1 (hCg1,z,non-a,mut(234,235)) with human kappa; also called J703M1S3#35
B8: AE11-5 AM1 (antibody, V domains shown)
VH: B1 VH with I34T, P104H, K105R
VL: B1 VL with R28S, S31N, S32T, A51V, S91K, R92V, P96S
notes: Full length IgG converted from scFv clone J703M1S3#2; Heavy chain plasmid is pHybE-hCg1,z,non-a,mut(234,235), i.e. human IgG1 with mutations at 234 and 235; Light chain plasmid is pHybE-hCk, i.e. human kappa; also called J703M1S3#2
B9: AE11-5 AM5 (antibody, V domains shown)
VH: B1 VH with A33P, S57A, P58G, P104F
VL: B1 VL with R28S, V55T, R92S, P97S
notes: Full length IgG converted from scFv clone J703M1S3#33; Human IgG1 (hCg1,z,non-a,mut(234,235)) with human kappa; also called J703M1S3#33
B10: hMAK199-AM1 (antibody, V domains shown)
VH: EVQLVQSGAEVKKPGASVKVSCKASGYTFANYGIIWVRQAPGQGLEWMGWINTYTGKPTYAQKFQGRVTMTTDTSTSTAYMELSSLRSEDTAVYYCARKLFTTMDVTDNAMDYWGQGTTVTVSS
VL: DIQMTQSPSSLSASVGDRVTITCRASQDISQYLNWYQQKPGKAPKLLIYYTSRLQSGVPSRFSGSGSGTDFTLTISSLQPEDFATYFCQQGNTWPPTFGQGTKLEIK
notes: scFv clone J662M2S3#10 converted to full length IgG; HC plasmid pHybE-hCg1,z,non-a V2 (human IgG1), LC plasmid pHybE-hCk V3 (human kappa); also called J662M2S3#10
B11: hMAK199-AM8 (antibody, V domains shown)
VH: B10 VH
VL: B10 VL
notes: scFv clone J662M2S3#45 converted to full length IgG; HC plasmid pHybE-hCg1,z,non-a V2 (human IgG1), LC plasmid pHybE-hCk V3 (human kappa); also called J662M2S3#45
B12: hMAK195-AM14 (antibody, V domains shown)
VH: EVQLVESGGGLVQPGGSLRLSCAASGFTFSNYGVSWVRQAPGKGLEWVSMIWADGSTHYASSLKGRFTISRDNSKNTLYLQMNSLRAEDTAVYYCAREWQHGPVAYWGQGTLVTVSS
VL: DIQMTQSPSSLSASVGDRVTITCKASQAVSSAVAWYQQKPGKAPKLLIYWASTRHTGVPSRFSGSGSGTDFTLTISSLQPEDFATYYCQQHYSTPFTFGQGTKLEIKR
notes: Full-length IgG; also called rHC3; hMAK195 rHC3
B13: hMAK195-AM25 (antibody, V domains shown)
VH: B12 VH with S35T, L63V
VL: B12 VL with K24R, A28L, R54L, S93R
notes: Full-length IgG; also called S4-24; hMAK195 S4-24
B14: hMAK195-AM17 (antibody, V domains shown)
VH: B12 VH with S35T, H58D, S61D, S62T, L63V
VL: B12 VL
notes: Full-length IgG; also called rHC22; hMAK195 rHC22
B15: hMAK195-AM16 (antibody, V domains shown)
VH: B12 VH with S35T, L63V, V104A
VL: B12 VL
notes: Full-length IgG; also called rHC19; hMAK195 rHC19

The binders below were run against Rhesus/Macaque TNF (Rhesus/Macaque, UniProt P48094 77-233) (assay: cell-based or functional assay).
Target sequence in this assay (P48094 77-233 limits assumed): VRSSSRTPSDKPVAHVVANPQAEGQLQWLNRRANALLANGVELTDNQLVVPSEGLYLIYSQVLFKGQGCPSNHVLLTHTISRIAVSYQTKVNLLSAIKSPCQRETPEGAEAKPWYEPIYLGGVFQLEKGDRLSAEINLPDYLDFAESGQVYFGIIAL

Row | Binder | rhesus TNF neutralization IC50 [nM]
1 | B1 | 0.109
2 | B2 | 0.756
3 | B3 | 0.14
4 | B4 | 3.04
5 | B5 | 0.165
6 | B6 | 0.123
7 | B7 | 0.652
8 | B8 | 0.251
9 | B9 | 0.613

Each binder was assayed against T1, human TNF-α (human, UniProt P01375 77-233, biotin label in the ELISA (site not stated); unlabelled in the L929 bioassay) (assay: cell-based or functional assay).
T1 sequence (P01375 77-233 R107D limits assumed): as the sequence (P48094 77-233 limits assumed) above, with R31D, T44R, N72T, L138R counted along it

Row | Binder | hu TNF neutralization IC50 [nM]
10 | B1 | 0.259
11 | B2 | 1.24
12 | B3 | 0.678
13 | B4 | 1.36
14 | B5 | 0.291
15 | B6 | 0.391
16 | B7 | 2.03
17 | B8 | 0.439
18 | B9 | 0.968

What follows are binders tested against T1, human TNF-α (assay: ELISA; IgG captured on goat anti-human IgG-Fc, serially diluted biotinylated human TNF, streptavidin-HRP).
Procedure: (§1) The following protocol is used to characterize the binding of TNF antibodies to biotinylated human or cyno TNF by enzyme-linked immunosorbent assay (ELISA). An ELISA plate was coated with 50 μl per well of goat anti human IgG-Fc at 2 μg/ml, overnight at 4° C. The plate was washed 3 times with PBS/Tween. 50 μl Mab diluted to 1 μg/ml in PBS/0.1% BSA was added to appropriate wells and incubated for 1 hour at room temperature (RT). The plate was washed 3 times with PBS/Tween. 50 μl of serial diluted biotin-human TNF was added to appropriate wells and incubated for 1 hour at RT. The plate was washed 3 times with PBS/Tween. 50 μl of streptavidin-HRP diluted 1:10,000 in PBS/0.1% BSA was added to appropriate wells and incubated for 1 hour at RT. The plate was washed 3 times with PBS/Tween. 50 μl of TMB was added to appropriate wells and the reaction was allowed to proceed for 1 minute. The reaction was stopped with 50 μl/well 2N H₂SO₄ and the absorbance read at 450 nm.

Row | Binder | EC50 [nM]
19 | B1 | 18.3
20 | B2 | 522
21 | B3 | 0.98
22 | B4 | 250
23 | B5 | 1.57
24 | B6 | 16.7
25 | B7 | 1.37
26 | B8 | 1.06
27 | B9 | 17.7

Each binder was assayed against T2, human TNF-α (human, UniProt P01375 77-233) (assay: hTNFa ELISA; IgG captured on anti-human IgG-Fc, biotinylated human TNF titrated).
T2 construct: The ELISA protocol (section 1.3) uses biotinylated human TNF; The L929 assay uses human TNF prepared at Abbott Bioresearch Center; also called hTNFa; hTNF
T2 sequence (P01375 77-233 R107D limits assumed): as the sequence (P48094 77-233 limits assumed) above, with R31D, T44R, N72T, L138R counted along it

Row | Binder | EC50 [nM]
28 | B10 | 0.016
29 | B11 | 0.219

Molecular target: Rhesus/Macaque TNF (Rhesus/Macaque, UniProt P48094 77-233)
Test: cell-based or functional assay
Remark: another data set of the same source
Target sequence in this assay (P48094 77-233 limits assumed): as the sequence (P48094 77-233 limits assumed) above

Row | Binder | rhesus TNF neutralization IC50 [nM]
30 | B10 | 0.012
31 | B11 | 0.204

The binders below were run against T2, human TNF-α (assay: cell-based or functional assay).

Row | Binder | hu TNF neutralization IC50 [nM]
32 | B10 | 0.054
33 | B11 | 0.247

The binders below were run against T3, human TNF-α (human, UniProt P01375 77-233) (assay: ELISA: IgG captured on goat anti-human IgG-Fc, biotin-human TNF titrated, streptavidin-HRP).
T3 construct: It was biotinylated in the ELISA and unlabelled in the L929 bioassay (prepared at Abbott Bioresearch Center); also called hTNFa; hTNF
T3 sequence (P01375 77-233 R107D limits assumed): as the sequence (P48094 77-233 limits assumed) above, with R31D, T44R, N72T, L138R counted along it

Row | Binder | EC50 [nM]
34 | B12 | 0.051
35 | B13 | 0.052
36 | B14 | 0.056
37 | B15 | 0.056

The binders below were run against T4, cynomolgus monkey TNF (cynomolgus monkey, UniProt P79337 77-233, limits assumed, biotin label in the ELISA (site not stated)) (assay: ELISA; IgG captured on goat anti-human IgG-Fc, serially diluted biotinylated cyno TNF, streptavidin-HRP).
T4 construct: also called cynoTNF; cyno TNF
T4 sequence (P79337 77-233 limits assumed): as the sequence (P48094 77-233 limits assumed) above, with L37V counted along it
Procedure: as §1

Row | Binder | EC50 [nM]
38 | B1 | 750
39 | B3 | 0.28
40 | B4 | 58.6
41 | B5 | 1.55
42 | B6 | 5.29
43 | B8 | 2.14
44 | B9 | 2.2

The binders below were run against T3, human TNF-α (assay: cell-based or functional assay).

Row | Binder | hu TNF neutralization IC50 (L929 bioassay) [nM]
45 | B12 | 0.0401
46 | B13 | 0.0114
47 | B14 | 0.0031
48 | B15 | 0.0105

What follows are binders tested against Rhesus/Macaque TNF (rhesus/macaque, UniProt P48094 77-233) (assay: cell-based or functional assay).
Rhesus/Macaque TNF (rhesus/macaque, UniProt P48094 77-233), sequence (P48094 77-233 limits assumed): as the sequence (P48094 77-233 limits assumed) above

Row | Binder | rhesus TNF neutralization IC50 (L929 bioassay) [nM]
49 | B12 | 4.61
50 | B13 | 0.262
51 | B14 | > 25
52 | B15 | 0.803
